Columns and labels:
PC3 tumor = test: In vivo efficacy, subcutaneous tumor xenograft; parameters: species or system Athymic nu/nu mice; details: intraperitoneal, every fourth day, 5 doses; tumor volume by caliper
Experimental: (§3) Athymic nu/nu (Harlan, Somerville, N.J.) female mice 4-6 weeks of age were injected subcutaneously with 5×10^6 tumor cells. […] Each treatment group consisted of groups of mice ranging in number from 10-12.
(§4) Tumor volume measurements were taken with a caliper routinely (1-2 times/week) starting at the initiation of drug treatment.

MDA-MB231 tumor = test: In vivo efficacy, subcutaneous tumor xenograft; parameters: species or system Athymic nu/nu mice; details: intraperitoneal, every fourth day, 5 doses; tumor volume by caliper
Experimental: as §3, §4

PC3 cells = test: Fluorescent visualization of internalization of α-EphA2 antibodies; format: cell-based, human; details: 50 μg/ml Ab, 20 or 60 minutes at 37° C.
Experimental: FIG. 18. […] PC3 cells were labeled with either human α-EphA2 mAb (G5; panels A and B) or R347 isotype control (panel C). Cell surface attached antibodies were then allowed to internalize by incubating the cells under growth conditions for either zero (non-internalized: panels A and C) or […] (internalized: panel B). All cells were then fixed (4% formaldehyde), permeabilized (0.5% Triton X-100), and stained with AlexaFluor 488-Ab prior to addition of antifade mounting media and fluorescent microscopy examination.
(§1) Cells (PC3, HUVEC, or CT26) were grown for 24-48 hours at 37° C./5% CO2 at a concentration of 2.5-5.0×10^4 cells per 400 μl of appropriate growth media per chamber on Nunc's Tek II 8-chamber slides. […] Cells were then washed 2× with PBS and cell-surface-bound primary Abs were allowed to internalize by covering the cells with growth media and incubation at 37° C./5% CO2 for 0 minutes, 20 minutes (FIGS. 18A-C and 19), or 60 minutes (FIG. 17).
(§2) Subsequent to internalization, cells were fixed (4% paraformaldehyde), permeabilized (0.5% Triton X-100), and labeled with secondary AlexaFluor 488 goat-α-human IgG Ab (Biosource), with 2× cold PBS washing in between steps.
Finally, the cells were covered with […] Mounting Media with DAPI (Vector Labs) and a coverslip prior to examination and photography with fluorescent confocal microscope. […]

HuVec cells = test: as above; format: cell-based, human; details: 50 μg/ml Ab, 20 minutes at 37° C.
Experimental: as §1, §2
Finally, the cells were covered with […] Mounting Media with DAPI (Vector Labs) and a coverslip prior to examination and photography with fluorescent confocal microscope. Results of the antibody internalization experiments are shown in the fluorescent microscopy pictures of FIGS. 16, 17, 18A, 18B, 18C, and 19 herein. EphA2 was rapidly internalized in these cell lines upon binding the agonistic EphA2 antibodies.

EphA2 = target: T1, EphA2 (Homo sapiens, UniProt P29317); test: EphA2 receptor activation (phosphorylation, immunoprecipitation/Western); format: cell-based; details: HuVec cells
T1 construct: endogenous in cells; host or cells: HUVEC (human)
T1 sequence (P29317 24-976): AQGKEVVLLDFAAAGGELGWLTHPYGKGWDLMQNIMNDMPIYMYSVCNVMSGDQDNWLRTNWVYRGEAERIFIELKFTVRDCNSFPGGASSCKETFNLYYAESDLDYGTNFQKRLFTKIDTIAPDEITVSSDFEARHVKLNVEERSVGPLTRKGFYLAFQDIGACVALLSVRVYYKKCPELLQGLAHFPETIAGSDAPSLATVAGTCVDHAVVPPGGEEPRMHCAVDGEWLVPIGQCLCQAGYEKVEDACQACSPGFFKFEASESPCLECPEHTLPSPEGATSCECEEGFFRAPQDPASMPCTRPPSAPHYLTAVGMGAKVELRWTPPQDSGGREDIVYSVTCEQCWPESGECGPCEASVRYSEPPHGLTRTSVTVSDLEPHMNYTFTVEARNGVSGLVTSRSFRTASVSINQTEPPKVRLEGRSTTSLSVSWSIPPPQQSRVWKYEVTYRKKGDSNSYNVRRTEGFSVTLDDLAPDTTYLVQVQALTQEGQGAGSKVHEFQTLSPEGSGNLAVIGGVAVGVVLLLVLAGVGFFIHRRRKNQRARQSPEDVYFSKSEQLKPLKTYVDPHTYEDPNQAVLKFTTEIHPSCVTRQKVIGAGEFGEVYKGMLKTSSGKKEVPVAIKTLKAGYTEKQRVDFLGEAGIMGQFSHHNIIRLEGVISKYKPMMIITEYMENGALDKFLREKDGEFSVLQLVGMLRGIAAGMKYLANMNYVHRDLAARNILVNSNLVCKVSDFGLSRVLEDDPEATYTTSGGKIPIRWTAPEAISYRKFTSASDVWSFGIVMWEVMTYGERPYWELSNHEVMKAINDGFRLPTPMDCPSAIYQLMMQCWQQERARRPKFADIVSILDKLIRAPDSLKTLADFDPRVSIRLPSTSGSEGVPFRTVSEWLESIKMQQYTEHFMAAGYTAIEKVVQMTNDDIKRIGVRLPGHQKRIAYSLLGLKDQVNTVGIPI
Experimental: Cells were grown overnight at 37° C./5% CO2 at a concentration of 0.5×10^6 cells per 3 ml of appropriate growth media per well in 6-well tissue culture plates. […] The cells were incubated for 15 minutes at 37° C./5% CO2 to activate EphA2 receptor. Subsequent to activation the cells were washed 1× with cold PBS and lysed on ice with 1% Triton X-100 lysis buffer containing Phosphatase Inhibitor Cocktails 1 and 2 (Sigma) and Complete Protease Inhibitor Cocktail Tablets (Roche), added as per manufacturer's recommendation. D7 α-EphA2 mAb and 50 μl of protein A sepharose beads pre-conjugated to rabbit anti-mouse IgG were mixed with lysate at 4° C. overnight to immunoprecipitate the proteins.
Protein lysates were resolved by 10% Bis-Tris NuPAGE Western gel and transferred electrophoretically to nitrocellulose membranes (Invitrogen) following manufacturer's protocol. […] See also Coffman et al., Cancer Res. 63: 7907-7912, 2003.

B1: G5vcMMAF: anti-EphA2 antibody G5 conjugated to MMAF with the valine-citrulline (vc) linker (conjugate)
VH: QMQLVQSGPEVKKPGTSVKVSCKASGFTFTDYSMNWVRQARGQRLEWIGFIRNKANDYTTEYSASVKGRVTITRDMSTSTAYMELSSLRSEDTAVYYCARYPRYHAMDSWGQGTSVTVSS
VL: DIQMTQSPSSLSASVGDRVTITCRASQSISNNLHWYQQKPGKAPKLLIKYVFQSISGVPSRFSGSGSGTDFTFTISSLQPEDFATYYCQQSNSWPLTFGGGTKVEIKG
modifications: non-natural residues
notes: anti-EphA2 antibody G5 conjugated to MMAF with the valine-citrulline (vc) linker
For B1, the “PC3 tumor growth in vivo” value (PC3 tumor) was “specifically inhibited” and the “MDA-MB231 tumor growth in vivo” value (MDA-MB231 tumor) was “specifically inhibited”.

B2: 3F2vcMMAE: anti-EphA2 antibody 3F2 conjugated to MMAE with a vc linker (conjugate)
VH: EVQLVESGGGVVRPGGSLRLSCAASGFTVSDYSMNWVRQAPGKGLEWIGFIRNKANAYTTEYSASVKGRFTISRDDSKNTLYLQMNSLKTEDTAVYYCTTYPRYHAMDSWGQGTMVTVSS
VL: AIQLTQSPSSLSASVGDRVTITCRASQSISNNLHWYLQKPGQSPQLLIYYGFQSISGVPSRFSGSGSGTDFTLTISSLQPEDFATYYCQQANSWPLTFGGGTKLEIK
modifications: non-natural residues
notes: anti-EphA2 antibody 3F2 conjugated to MMAE with a vc linker
For B2, the “PC3 tumor growth in vivo” value (PC3 tumor) was “specifically inhibit”.

B3: G5: humanized agonistic monoclonal antibody that binds EphA2; VH/VL SEQ ID NO. 103 and 104 (antibody, V domains shown)
VH: QMQLVQSGPEVKKPGTSVKVSCKASGFTFTDYSMNWVRQARGQRLEWIGFIRNKANDYTTEYSASVKGRVTITRDMSTSTAYMELSSLRSEDTAVYYCARYPRYHAMDSWGQGTSVTVSS
VL: DIQMTQSPSSLSASVGDRVTITCRASQSISNNLHWYQQKPGKAPKLLIKYVFQSISGVPSRFSGSGSGTDFTFTISSLQPEDFATYYCQQSNSWPLTFGGGTKVEIKG
modifications: Antibody variable region
B3 was tested, and the internalization by immunofluorescence (PC3 cells) was “internalization”.

B4: 3F2: humanized agonistic monoclonal antibody that binds EphA2; VH/VL SEQ ID NO: 63 and 64 (antibody, V domains shown)
VH: EVQLVESGGGVVRPGGSLRLSCAASGFTVSDYSMNWVRQAPGKGLEWIGFIRNKANAYTTEYSASVKGRFTISRDDSKNTLYLQMNSLKTEDTAVYYCTTYPRYHAMDSWGQGTMVTVSS
VL: AIQLTQSPSSLSASVGDRVTITCRASQSISNNLHWYLQKPGQSPQLLIYYGFQSISGVPSRFSGSGSGTDFTLTISSLQPEDFATYYCQQANSWPLTFGGGTKLEIK
modifications: Antibody Variable Heavy chain; Antibody Variable region
For B4, the internalization by immunofluorescence (HuVec cells) was “Internalization” and the EphA2 phosphorylation (EphA2) was “EphA2 phosphorylation”.

Reference: patent US20090304721A1, “TOXIN […] RECEPTOR ANTIBODIES” (priority 2005, published 2009)
